From article PMC3564526 (Molecular Biology of the Cell, 2013)

Target: T1, PH^Ste5 domain (Ste5 aa 373–537), bacterially expressed and purified (S. cerevisiae, UniProt P32917 373-537)
T1 sequence (looked up): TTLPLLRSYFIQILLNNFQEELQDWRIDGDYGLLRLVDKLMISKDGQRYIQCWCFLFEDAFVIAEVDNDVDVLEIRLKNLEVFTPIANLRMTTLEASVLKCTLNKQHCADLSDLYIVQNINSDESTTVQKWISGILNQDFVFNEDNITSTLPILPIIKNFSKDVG
Assay: SPR

B1: His-tagged RBL^Ste11 domain (Ste11 aa 116–236) (domain or fragment, S. cerevisiae, UniProt P23561 116-236, looked up)
chain: PEKHCVIFILNDGSAKKVNVNGCFNADSIKKRLIRRLPHELLATNSNGEVTKMVQDYDVFVLDYTKNVLHLLYDVELVTICHANDRVEKNRLIFVSKDQTPSDKAISTSKKLYLRTLSALS
Q: Which Kd does the source give for B1 here?
A: ~200 nM
